{
  "source": "patent US20070020717A1",
  "conditions_in_all_cases": "chains peptide; modification not given",
  "key": {"[1]": {"molecular_target": "T1, GST-PDZ fusion protein, PDZ domain of SHANK2 (GID 6049185), Q9UPX8", "T1 chain": "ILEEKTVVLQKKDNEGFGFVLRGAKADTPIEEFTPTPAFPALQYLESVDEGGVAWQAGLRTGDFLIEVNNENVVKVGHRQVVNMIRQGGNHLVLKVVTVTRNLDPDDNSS", "experiment": "ELISA"}, "[2]": {"molecular_target": "T2, GST-PDZ fusion protein, PDZ domain of SHANK1 (GID 7025450), D3YZU1", "T2 chain": "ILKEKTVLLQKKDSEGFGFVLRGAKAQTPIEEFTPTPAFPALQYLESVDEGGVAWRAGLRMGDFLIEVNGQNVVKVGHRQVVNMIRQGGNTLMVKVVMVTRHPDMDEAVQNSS", "experiment": "ELISA"}, "[3]": {"molecular_target": "T3, GST-PDZ fusion protein, PDZ domain of MAST2 (Accession no. AB047005), Q6P0Q8", "T3 chain": "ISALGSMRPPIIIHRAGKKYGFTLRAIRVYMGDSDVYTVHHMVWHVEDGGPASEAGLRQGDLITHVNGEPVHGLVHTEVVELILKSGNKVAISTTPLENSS", "experiment": "ELISA (G Assay)"}},
  "data": [
    {"binder": "RRRSGLDDINPTVLLKERSTEL", "note": "[Peptide 1957]", "values": [
      {"measurement": "EC50", "setting": "[1]", "result": 62, "unit": "µM"},
      {"measurement": "EC50", "setting": "[2]", "result": 66.3, "unit": "µM"},
      {"measurement": "EC50", "setting": "[3]", "result": 23.1, "unit": "µM"}
    ]}
  ]
}
